Drawing on patent US20120263734A1, this text covers neutralization of GPCMV V545/82 entry into JH4 cells (highest concentration tested, no effect) for one substance.

In the assay the target is GPCMV gB (glycoprotein B of Guinea Pig CMV strain V545/82) (guinea pig CMV (GPCMV)). Kind of assay: cell-based or functional assay.

Substance ITC88 control antibody yielded a neutralization of GPCMV V545/82 entry into JH4 cells (highest concentration tested, no effect) of more than 300 µg/mL.
